# B1: PLAGL1 (parent)
# chain: CKDFLCQFCAQRFGRKDHLTRHTK
# B2: FCHO1 (parent)
# chain: DKLALCHLELTRKLQDLIKDVLRY
# Variants of: B1
# Assay: protein stability index of a GFP-peptide fusion (GPS, HEK-293T) (PSI 1-6); higher = more stable
# Settings: c terminus: a fixed tail appended
# 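Also: lentivirally expressed fusions sorted by FACS into six bins by GFP to DsRed ratio, PSI derived from sequencing read proportions per bin multiplied by bin number.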
row,Variant,protein stability index
1,CFDFLCQFCAQRFGRKDHLTRHTK,2.35
2,CHDFLCQFCAQRFGRKDHLTRHTK,2.46
3,CYDFLCQFCAQRFGRKDHLTRHTK,2.05
4,CRDFLCQFCAQRFGRKDHLTRHTK,2.74
5,CDDFLCQFCAQRFGRKDHLTRHTK,2.02
6,CEDFLCQFCAQRFGRKDHLTRHTK,2.13
7,CPDFLCQFCAQRFGRKDHLTRHTK,2.52
8,CWDFLCQFCAQRFGRKDHLTRHTK,1.7
9,CNDFLCQFCAQRFGRKDHLTRHTK,2.02
10,CADFLCQFCAQRFGRKDHLTRHTK,1.7
11,CQDFLCQFCAQRFGRKDHLTRHTK,2.08
12,CIDFLCQFCAQRFGRKDHLTRHTK,1.78
13,CTDFLCQFCAQRFGRKDHLTRHTK,2.09
14,CGDFLCQFCAQRFGRKDHLTRHTK,2.43
15,CSDFLCQFCAQRFGRKDHLTRHTK,1.74
16,CVDFLCQFCAQRFGRKDHLTRHTK,1.53
17,CLDFLCQFCAQRFGRKDHLTRHTK,1.85
18,CCDFLCQFCAQRFGRKDHLTRHTK,2.44
19,CMDFLCQFCAQRFGRKDHLTRHTK,1.46
20,CKAFLCQFCAQRFGRKDHLTRHTK,1.57
21,CKHFLCQFCAQRFGRKDHLTRHTK,2.07
22,CKVFLCQFCAQRFGRKDHLTRHTK,2.38
23,CKFFLCQFCAQRFGRKDHLTRHTK,3.19
24,CKTFLCQFCAQRFGRKDHLTRHTK,1.77
25,CKPFLCQFCAQRFGRKDHLTRHTK,1.73
26,CKKFLCQFCAQRFGRKDHLTRHTK,1.48
27,CKMFLCQFCAQRFGRKDHLTRHTK,1.38

row,Variant,protein stability index
1,CKGFLCQFCAQRFGRKDHLTRHTK,2.38
2,CKIFLCQFCAQRFGRKDHLTRHTK,2.01
3,CKNFLCQFCAQRFGRKDHLTRHTK,1.56
4,CKLFLCQFCAQRFGRKDHLTRHTK,1.86
5,CKCFLCQFCAQRFGRKDHLTRHTK,1.31
6,CKRFLCQFCAQRFGRKDHLTRHTK,1.81
7,CKSFLCQFCAQRFGRKDHLTRHTK,1.51
8,CKEFLCQFCAQRFGRKDHLTRHTK,1.78
9,CKQFLCQFCAQRFGRKDHLTRHTK,2.76
10,LKDFLCQFCAQRFGRKDHLTRHTK,2.25
11,YKDFLCQFCAQRFGRKDHLTRHTK,2.44
12,KKDFLCQFCAQRFGRKDHLTRHTK,2.11
13,HKDFLCQFCAQRFGRKDHLTRHTK,2.02
14,AKDFLCQFCAQRFGRKDHLTRHTK,3.04
15,SKDFLCQFCAQRFGRKDHLTRHTK,2.7
16,GKDFLCQFCAQRFGRKDHLTRHTK,1.93
17,RKDFLCQFCAQRFGRKDHLTRHTK,2.04
18,PKDFLCQFCAQRFGRKDHLTRHTK,2.2
19,VKDFLCQFCAQRFGRKDHLTRHTK,1.67
20,QKDFLCQFCAQRFGRKDHLTRHTK,2.11
21,TKDFLCQFCAQRFGRKDHLTRHTK,1.76
22,FKDFLCQFCAQRFGRKDHLTRHTK,1.64
23,IKDFLCQFCAQRFGRKDHLTRHTK,2.46
24,MKDFLCQFCAQRFGRKDHLTRHTK,1.53
25,WKDFLCQFCAQRFGRKDHLTRHTK,1.84
26,NKDFLCQFCAQRFGRKDHLTRHTK,1.72
27,DKDFLCQFCAQRFGRKDHLTRHTK,2.31

# Variants of: B2
# Assay: as above
# Settings: c terminus: a fixed tail appended
row,Variant,protein stability index
1,DKLALNHLELTRKLQDLIKDVLRY,3.3
2,DKLALMHLELTRKLQDLIKDVLRY,3.01
3,DKLALTHLELTRKLQDLIKDVLRY,2.99
4,DKLALQHLELTRKLQDLIKDVLRY,3.1
5,DKLALKHLELTRKLQDLIKDVLRY,3
6,DKLALCHLELTRKLQDWIKDVLRY,4.39
7,DKLALCHLELTRKLQDQIKDVLRY,1.35
8,DKLALCHLELTRKLQDIIKDVLRY,2.89
9,DKLALCHLELTRKLQDAIKDVLRY,1.42
10,DKLALCHLELTRKLQDKIKDVLRY,2.77
11,DKLALCHLELTRKLQDFIKDVLRY,2.42
12,DKLALCHLELTRKLCDLIKDVLRY,2.26
13,DKLALCHLELTRKLPDLIKDVLRY,1.36
14,DKLALCHLELTRKLTDLIKDVLRY,2.05
15,DKLALCHLELTRKLADLIKDVLRY,2.11
16,DKLALCHLELTRKLIDLIKDVLRY,3.87
17,DKLALCHLELTRKLVDLIKDVLRY,1.95
18,DKLALCHLELTRKLNDLIKDVLRY,2.84
19,DKLALCWLELTRKLQDLIKDVLRY,1.38
20,DKLALCDLELTRKLQDLIKDVLRY,3.07
21,DKLALCTLELTRKLQDLIKDVLRY,3.2
22,DKLALCRLELTRKLQDLIKDVLRY,2.93
23,DKLALCSLELTRKLQDLIKDVLRY,1.81

row,Variant,protein stability index
1,DKLALCQLELTRKLQDLIKDVLRY,2.88
2,DKLALCHLELTRKLQDLIDDVLRY,1.78
3,DKLALCHLELTRKLQDLIEDVLRY,2.16
4,DKLALCHLELTRKLQDLIQDVLRY,1.36
5,DKLALCHLELTRKLQDLIRDVLRY,2.22
6,DKLALCHLELTRKLQDLIGDVLRY,2.29
7,DKLALCHLELTRKLQDLIADVLRY,1.17
8,DKLALCHLELTRKLQDLIIDVLRY,2.33
9,DKLALCHLELTRKLQDLIPDVLRY,2.36
10,DKLALCHLELTRKLQDLISDVLRY,1.71
11,DKLALCHLELTEKLQDLIKDVLRY,1.54
12,DKLALCHLELTYKLQDLIKDVLRY,2.6
13,DKLALCHLELTGKLQDLIKDVLRY,2.7
14,DKLALCHLELTSKLQDLIKDVLRY,2.56
15,DKLALCHLELTNKLQDLIKDVLRY,2.54
16,DKLALCHLELTIKLQDLIKDVLRY,2.33
17,DKLALCHLELTCKLQDLIKDVLRY,2.23
18,DKLALCHLELTQKLQDLIKDVLRY,2.9
19,DKLALCHLELTAKLQDLIKDVLRY,1.42
20,DKLALCHLELTPKLQDLIKDVLRY,1.53
21,DKLALCHLELTVKLQDLIKDVLRY,1.83
22,DKLALCHLEMTRKLQDLIKDVLRY,4.05
23,DKLALCHLERTRKLQDLIKDVLRY,1.51

row,Variant,protein stability index
1,DKLALCHLENTRKLQDLIKDVLRY,1.21
2,DKLALCHLEFTRKLQDLIKDVLRY,3.33
3,DKLALCHLEETRKLQDLIKDVLRY,2.57
4,DKLALCHLEHTRKLQDLIKDVLRY,1.3
5,DKLALCHLEKTRKLQDLIKDVLRY,1.59
6,DKLALCHLELTRKLQDLIKDYLRY,2.3
7,DKLALCHLELTRKLQDLIKDDLRY,1.43
8,DKLALCHLELTRKLQDLIKDHLRY,3.97
9,DKFALCHLELTRKLQDLIKDVLRY,2.93
10,DKAALCHLELTRKLQDLIKDVLRY,1.44
11,DKEALCHLELTRKLQDLIKDVLRY,2.3
12,TKLALCHLELTRKLQDLIKDVLRY,2.77
13,FKLALCHLELTRKLQDLIKDVLRY,3.44
14,KKLALCHLELTRKLQDLIKDVLRY,2.37
15,QKLALCHLELTRKLQDLIKDVLRY,4.47
16,PKLALCHLELTRKLQDLIKDVLRY,4.01
17,SKLALCHLELTRKLQDLIKDVLRY,2.45
18,DKLALCHLELTRELQDLIKDVLRY,2.19
19,DKLALCHLELTRLLQDLIKDVLRY,1.52
20,DKLALCHLELTRCLQDLIKDVLRY,1.75
21,DKLALCHLELTRMLQDLIKDVLRY,2.21
22,DKLALCHLELTRNLQDLIKDVLRY,1.8
23,DKLALCHLELTRPLQDLIKDVLRY,2.54

row,Variant,protein stability index
1,DKLALCHLELTRDLQDLIKDVLRY,2.86
2,DKLALCHLELTRGLQDLIKDVLRY,2.47
3,DKLALCHLELTRKLQDLIKDVLRK,2.3
4,DKLALCHLELTRKLQDLIKDVLRN,2.43
5,DKLALCHLELTRKLQDLIKDVLRP,1.99
6,DKLALCHLELTRKLQDLIKDVLRE,3.6
7,DKLCLCHLELTRKLQDLIKDVLRY,2.52
8,DKLPLCHLELTRKLQDLIKDVLRY,2.33
9,DKLFLCHLELTRKLQDLIKDVLRY,2.01
10,DKLGLCHLELTRKLQDLIKDVLRY,1.6
11,DKLALCHLELTRKLQYLIKDVLRY,2.42
12,DKLALCHLELTRKLQNLIKDVLRY,3.32
13,DKLALCHLELTRKLQWLIKDVLRY,2.1
14,DKLALCHLELTRKLQILIKDVLRY,2.67
15,DKLALCHLELTRKLQSLIKDVLRY,2.2
16,DKLALCHLALTRKLQDLIKDVLRY,2.63
17,DKLALCHLNLTRKLQDLIKDVLRY,5.51
18,DKLALCHLQLTRKLQDLIKDVLRY,3.2
19,DKLALCHLYLTRKLQDLIKDVLRY,3.21
20,DKLALCHLLLTRKLQDLIKDVLRY,2.72
21,DKLALCHLELTRKIQDLIKDVLRY,3.06
22,DKLALCHLELTRKQQDLIKDVLRY,2.14
23,DKLALCHLELTRKWQDLIKDVLRY,1.53

row,Variant,protein stability index
1,DKLALCHLELTRKRQDLIKDVLRY,2.6
2,DKLALCHLELTRKNQDLIKDVLRY,2.33
3,DKLALCHLELTRKMQDLIKDVLRY,4.05
4,DKLALCHLELTRKLQDLKKDVLRY,3.16
5,DKLALCHLELTRKLQDLHKDVLRY,2.12
6,DKLALCHLELTRKLQDLCKDVLRY,2.17
7,DKLALCHLELTRKLQDLGKDVLRY,2.33
8,DKLALCHLELTRKLQDLMKDVLRY,2.05
9,DKLALCHLELTRKLQDLDKDVLRY,2.98
10,DKLALCHLELTRKLQDLYKDVLRY,2.52
11,DKLALCHLELERKLQDLIKDVLRY,1.27
12,DKLALCHLELMRKLQDLIKDVLRY,2.82
13,DKLALCHLELIRKLQDLIKDVLRY,1.69
14,DKLALCHLELDRKLQDLIKDVLRY,3.07
15,DKLALCHLELTRKLQDLIKDVQRY,2.92
16,DKLALCHLELTRKLQDLIKDVKRY,1.65
17,DKLALCHLELTRKLQDLIKDVDRY,2.32
18,DKLALCHLELTRKLQDLIKDVTRY,1.05
19,DQLALCHLELTRKLQDLIKDVLRY,2.45
20,DHLALCHLELTRKLQDLIKDVLRY,2.72
21,DILALCHLELTRKLQDLIKDVLRY,2.57
22,DDLALCHLELTRKLQDLIKDVLRY,3.04
23,DTLALCHLELTRKLQDLIKDVLRY,1.97

row,Variant,protein stability index
1,DNLALCHLELTRKLQDLIKDVLRY,1.26
2,DSLALCHLELTRKLQDLIKDVLRY,2.21
3,DKLAWCHLELTRKLQDLIKDVLRY,4.03
4,DKLAYCHLELTRKLQDLIKDVLRY,2.01
5,DKLAPCHLELTRKLQDLIKDVLRY,1.82
6,DKLATCHLELTRKLQDLIKDVLRY,1.72
7,DKLAICHLELTRKLQDLIKDVLRY,1.94
8,DKLALCHNELTRKLQDLIKDVLRY,2.36
9,DKLALCHFELTRKLQDLIKDVLRY,2.65
10,DKLALCHLELTRKLQDLIKDVLLY,2.59
11,DKLALCHLELTRKLQDLIKDVLAY,3.49
12,DKLALCHLELTRKLQDLIKDVLQY,3.15
13,DKLALCHLELTRKLQDLIKMVLRY,1.9
14,DKLALCHLELTRKLQDLIKPVLRY,2.52
15,DKLALCHLELTRKLQDLIKGVLRY,3.57
16,DKLALCHLELTRKLQDLIKNVLRY,4.79
17,DKLALCHLELTRKLQDLIKVVLRY,2.67
18,DKLALCHLELTRKLQDLIKYVLRY,2.3
19,DKLALCHLELTRKLQDLIKCVLRY,1.11

# Source: the supplement of paper PMC10567573
